Test results as given in the supplement of paper PMC5998384.

What was measured:
[1] = system: HeLa Kyoto; assay: melting temperature (median over replicates), in situ; higher = more thermally stable
[2] = system: HeLa Kyoto; assay: solubility in G1/S (NP-40 vs SDS abundance) (log2 ratio); higher = more soluble; settings: cell cycle stage: G1/S
[3] = system: HeLa Kyoto; assay: solubility change mitosis vs G1/S (difference of NP-40 vs SDS log2 ratios) (log2 ratio difference); higher = more soluble in mitosis
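Wherever melting temperature (median over replicates), in situ is given: HeLa Kyoto cells synchronized by double thymidine or nocodazole block, proteins quantified by TMT10plex mass spectrometry, three independent biological replicates.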
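Wherever solubility change mitosis vs G1/S (difference of NP-40 vs SDS log2 ratios) is given: synchronized HeLa Kyoto cells (double thymidine block for G1/S, nocodazole release for mitosis), protein amounts in NP-40 versus SDS lysates quantified by mass spectrometry, three biological replicates.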
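Wherever solubility in G1/S (NP-40 vs SDS abundance) is given: HeLa Kyoto cells arrested at G1/S by double thymidine block, proteins quantified by TMT10plex mass spectrometry in mild NP-40 versus SDS extracts, three biological replicates.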

MEAAVGVPDGGDQGGAGPREDATPMDAYLRKLGLYRKLVAKDGSCLFRAVAEQVLHSQSRHVEVRMACIHYLRENREKFEAFIEGSFEEYLKRLENPQEWVGQVEISALSLMYRKDFIIYREPNVSPSQVTENNFPEKVLLCFSNGNHYDIVYPIKYKESSAMCQSLLYELLYEKVFKTDVSKIVMELDTLEVADEDNSEISDSEDDSCKSKTAAAAADVNGFKPLSGNEQLKNNGNSTSLPLSRKVLKSLNPAVYRNVEYEIWLKSKQAQQKRDYSIAAGLQYEVGDKCQVRLDHNGKFLNADVQGIHSENGPVLVEELGKKHTSKNLKAPPPESWNTVSGKKMKKPSTSGQNFHSDVDYRGPKNPSKPIKAPSALPPRLQHPSGVRQHAFSSHSSGSQSQKFSSEHKNLSRTPSQIIRKPDRERVEDFDHTSRESNYFGLSPEERREKQAIEESRLLYEIQNRDEQAFPALSSSSVNQSASQSSNPCVQRKSSHVGDRKGSRRRMDTEERKDKDSIHGHSQLDKRPEPSTLENITDDKYATVSSPSKSKKLECPSPAEQKPAEHVSLSNPAPLLVSPEVHLTPAVPSLPATVPAWPSEPTTFGPTGVPAPIPVLSVTQTLTTGPDSAVSQAHLTPSPVPVSIQAVNQPLMPLPQTLSLYQDPLYPGFPCNEKGDRAIVPPYSLCQTGEDLPKDKNILRFFFNLGVKAYSCPMWAPHSYLYPLHQAYLAACRMYPKVPVPVYPHNPWFQEAPAAQNESDCTCTDAHFPMQTEASVNGQMPQPEIGPPTFSSPLVIPPSQVSESHGQLSYQADLESETPGQLLHADYEESLSGKNMFPQPSFGPNPFLGPVPIAPPFFPHVWYGYPFQGFIENPVMRQNIVLPSDEKGELDLSLENLDLSKDCGSVSTVDEFPEARGEHVHSLPEASVSSKPDEGRTEQSSQTRKADTALASIPPVAEGKAHPPTQILNRERETVPVELEPKRTIQSLKEKTEKVKDPKTAADVVSPGANSVDSRVQRPKEESSEDENEVSNILRSGRSKQFYNQTYGSRKYKSDWGYSGRGGYQHVRSEESWKGQPSRSRDEGYQYHRNVRGRPFRGDRRRSGMGDGHRGQHT [OTUD4]
melting temperature ([1]; cell cycle stage: mitosis): 51.1 °C
solubility in G1/S (log2) [2]: -0.0234
solubility change mitosis (log2) [3]: 0.0663

MASRGKTETSKLKQNLEEQLDRLMQQLQDLEECREELDTDEYEETKKETLEQLSEFNDSLKKIMSGNMTLVDELSGMQLAIQAAISQAFKTPEVIRLFAKKQPGQLRTRLAEMDRDLMVGKLERDLYTQQKVEILTALRKLGEKLTADDEAFLSANAGAILSQFEKVSTDLGSGDKILALASFEVEKTKK [LZIC]
melting temperature ([1]; cell cycle stage: G1/S): 54.1 °C
melting temperature ([1]; cell cycle stage: mitosis): 53.2 °C
solubility in G1/S (log2) [2]: 0.367
solubility change mitosis (log2) [3]: 0.544

QSER1
melting temperature ([1]; cell cycle stage: G1/S): 46.5 °C
melting temperature ([1]; cell cycle stage: mitosis): 48.5 °C
solubility in G1/S (log2) [2]: -0.136
solubility change mitosis (log2) [3]: -0.127

MYLSICCCFLLWAPALTLKNLNYSVPEEQGAGTVIGNIGRDARLQPGLPPAERGGGGRSKSGSYRVLENSAPHLLDVDADSGLLYTKQRIDRESLCRHNAKCQLSLEVFANDKEICMIKVEIQDINDNAPSFSSDQIEMDISENAAPGTRFPLTSAHDPDAGENGLRTYLLTRDDHGLFGLDVKSRGDGTKFPELVIQKALDREQQNHHTLVLTALDGGEPPRSATVQINVKVIDSNDNSPVFEAPSYLVELPENAPLGTVVIDLNATDADEGPNGEVLYSFSSYVPDRVRELFSIDPKTGLIRVKGNLDYEENGMLEIDVQARDLGPNPIPAHCKVTVKLIDRNDNAPSIGFVSVRQGALSEAAPPGTVIALVRVTDRDSGKNGQLQCRVLGGGGTGGGGGLGGPGGSVPFKLEENYDNFYTVVTDRPLDRETQDEYNVTIVARDGGSPPLNSTKSFAIKILDENDNPPRFTKGLYVLQVHENNIPGEYLGSVLAQDPDLGQNGTVSYSILPSHIGDVSIYTYVSVNPTNGAIYALRSFNFEQTKAFEFKVLAKDSGAPAHLESNATVRVTVLDVNDNAPVIVLPTLQNDTAELQVPRNAGLGYLVSTVRALDSDFGESGRLTYEIVDGNDDHLFEIDPSSGEIRTLHPFWEDVTPVVELVVKVTDHGKPTLSAVAKLIIRSVSGSLPEGVPRVNGEQHHWDMSLPLIVTLSTISIILLAAMITIAVKCKRENKEIRTYNCRIAEYSHPQLGGGKGKKKKINKNDIMLVQSEVEERNAMNVMNVVSSPSLATSPMYFDYQTRLPLSSPRSEVMYLKPASNNLTVPQGHAGCHTSFTGQGTNASETPATRMSIIQTDNFPAEPNYMGSRQQFVQSSSTFKDPERASLRDSGHGDSDQADSDQDTNKGSCCDMSVREALKMKTTSTKSQPLEQEPEECVNCTDECRVLGHSDRCWMPQFPAANQAENADYRTNLFVPTVEANVETETYETVNPTGKKTFCTFGKDKREHTILIANVKPYLKAKRALSPLLQEVPSASSSPTKACIEPCTSTKGSLDGCEAKPGALAEASSQYLPTDSQYLSPSKQPRDPPFMASDQMARVFADVHSRASRDSSEMGAVLEQLDHPNRDLGRESVDAEEVVREIDKLLQDCRGNDPVAVRK [PCDH17]
melting temperature ([1]; cell cycle stage: G1/S): 53.8 °C
melting temperature ([1]; cell cycle stage: mitosis): 53.4 °C
solubility in G1/S (log2) [2]: 0.25
solubility change mitosis (log2) [3]: -0.0215

MAAEEKDPLSYFAAYGSSSSGSSDEEDNIEPEETSRRTPDPAKSAGGCRNKAEKRLPGPDELFRSVTRPAFLYNPLNKQIDWERHVVKAPEEPPKEFKIWKSNYVPPPETYTTEKKPPPPELDMAIKWSNIYEDNGDDAPQNAKKARLLPEGEETLESDDEKDEHTSKKRKVEPGEPAKKKK [C1ORF52]
melting temperature ([1]; cell cycle stage: G1/S): 54.3 °C
melting temperature ([1]; cell cycle stage: mitosis): 52.5 °C
solubility in G1/S (log2) [2]: 0.074
solubility change mitosis (log2) [3]: 0.413

MEVHGKPKASPSCSSPTRDSSGVPVSKELLTAGSDGRGGIWDRLLINSQPKSRKTSTLQTVRIERSPLLDQVQTFLPQMARANEKLRKEMAAAPPGRFNIENIDGPHSKVIQMDVALFEMNQSDSKEVDSSEESSQDSSENSSESEDEDDSIPSEVTIDNIKLPNSEGGKGKIEVLDSPASKKKK [C12ORF45]
melting temperature ([1]; cell cycle stage: G1/S): 52.9 °C
melting temperature ([1]; cell cycle stage: mitosis): 53.7 °C
solubility in G1/S (log2) [2]: -0.302
solubility change mitosis (log2) [3]: 0.0873

MALVRGAEPAAGPSRWLPTHVQVTVLRARGLRGKSSGAGSTSDAYTVIQVGREKYSTSVVEKTHGCPEWREECSFELPPGALDGLLRAQEADAGPAPWAASSAAACELVLTTMHRSLIGVDKFLGQATVALDEVFGAGRAQHTQWYKLHSKPGKKEKERGEIEVTIQFTRNNLSASMFDLSMKDKPRSPFSKIRDKMKGKKKYDLESASAILPSSAIEDPDLGSLGKMGKAKGFFLRNKLRKSSLTQSNTSLGSDSTLSSASGSLAYQGPGAELLTRSPSRSSWLSTEGGRDSAQSPKLFTHKRTYSDEANQMRVAPPRALLDLQGHLDAASRSSLCVNGSHIYNEEPQGPVRHRSSISGSLPSSGSLQAVSSRFSEEGPRSTDDTWPRGSRSNSSSEAVLGQEELSAQAKVLAPGASHPGEEEGARLPEGKPVQVATPIVASSEAVAEKEGARKEERKPRMGLFHHHHQGLSRSELGRRSSLGEKGGPILGASPHHSSSGEEKAKSSWFGLREAKDPTQKPSPHPVKPLSAAPVEGSPDRKQSRSSLSIALSSGLEKLKTVTSGSIQPVTQAPQAGQMVDTKRLKDSAVLDQSAKYYHLTHDELISLLLQRERELSQRDEHVQELESYIDRLLVRIMETSPTLLQIPPGPPK [RAB11FIP5]
melting temperature ([1]; cell cycle stage: G1/S): 50.1 °C
melting temperature ([1]; cell cycle stage: mitosis): 49.3 °C
solubility in G1/S (log2) [2]: 0.0739
solubility change mitosis (log2) [3]: -0.217

MAAGERSWCLCKLLRFFYSLFFPGLIVCGTLCVCLVIVLWGIRLLLQRKKKLVSTSKNGKNQMVIAFFHPYCNAGGGGERVLWCALRALQKKYPEAVYVVYTGDVNVNGQQILEGAFRRFNIRLIHPVQFVFLRKRYLVEDSLYPHFTLLGQSLGSIFLGWEALMQCVPDVYIDSMGYAFTLPLFKYIGGCQVGSYVHYPTISTDMLSVVKNQNIGFNNAAFITRNPFLSKVKLIYYYLFAFIYGLVGSCSDVVMVNSSWTLNHILSLWKVGNCTNIVYPPCDVQTFLDIPLHEKKMTPGHLLVSVGQFRPEKNHPLQIRAFAKLLNKKMVESPPSLKLVLIGGCRNKDDELRVNQLRRLSEDLGVQEYVEFKINIPFDELKNYLSEATIGLHTMWNEHFGIGVVECMAAGTIILAHNSGGPKLDIVVPHEGDITGFLAESEEDYAETIAHILSMSAEKRLQIRKSARASVSRFSDQEFEVTFLSSVEKLFK [ALG11]
melting temperature ([1]; cell cycle stage: mitosis): 52.4 °C
solubility in G1/S (log2) [2]: 0.114
solubility change mitosis (log2) [3]: -0.199

MDTSSVGGLELTDQTPVLLGSTAMATSLTNVGNSFSGPANPLVSRSNKFQNSSVEDDDDVVFIEPVQPPPPSVPVVADQRTITFTSSKNEELQGNDSKITPSSKELASQKGSVSETIVIDDEEDMETNQGQEKNSSNFIERRPPETKNRTNDVDFSTSSFSRSKVNAGMGNSGITTEPDSEIQIANVTTLETGVSSVNDGQLENTDGRDMNLMITHVTSLQNTNLGDVSNGLQSSNFGVNIQTYTPSLTSQTKTGVGPFNPGRMNVAGDVFQNGESATHHNPDSWISQSASFPRNQKQPGVDSLSPVASLPKQIFQPSVQQQPTKPVKVTCANCKKPLQKGQTAYQRKGSAHLFCSTTCLSSFSHKPAPKKLCVMCKKDITTMKGTIVAQVDSSESFQEFCSTSCLSLYEDKQNPTKGALNKSRCTICGKLTEIRHEVSFKNMTHKLCSDHCFNRYRMANGLIMNCCEQCGEYLPSKGAGNNVLVIDGQQKRFCCQSCVSEYKQVGSHPSFLKEVRDHMQDSFLMQPEKYGKLTTCTGCRTQCRFFDMTQCIGPNGYMEPYCSTACMNSHKTKYAKSQSLGIICHFCKRNSLPQYQATMPDGKLYNFCNSSCVAKFQALSMQSSPNGQFVAPSDIQLKCNYCKNSFCSKPEILEWENKVHQFCSKTCSDDYKKLHCIVTYCEYCQEEKTLHETVNFSGVKRPFCSEGCKLLYKQDFARRLGLRCVTCNYCSQLCKKGATKELDGVVRDFCSEDCCKKFQDWYYKAARCDCCKSQGTLKERVQWRGEMKHFCDQHCLLRFYCQQNEPNMTTQKGPENLHYDQGCQTSRTKMTGSAPPPSPTPNKEMKNKAVLCKPLTMTKATYCKPHMQTKSCQTDDTWRTEYVPVPIPVPVYIPVPMHMYSQNIPVPTTVPVPVPVPVFLPAPLDSSEKIPAAIEELKSKVSSDALDTELLTMTDMMSEDEGKTETTNINSVIIETDIIGSDLLKNSDPETQSSMPDVPYEPDLDIEIDFPRAAEELDMENEFLLPPVFGEEYEEQPRPRSKKKGAKRKAVSGYQSHDDSSDNSECSFPFKYTYGVNAWKHWVKTRQLDEDLLVLDELKSSKSVKLKEDLLSHTTAELNYGLAHFVNEIRRPNGENYAPDSIYYLCLGIQEYLCGSNRKDNIFIDPGYQTFEQELNKILRSWQPSILPDGSIFSRVEEDYLWRIKQLGSHSPVALLNTLFYFNTKYFGLKTVEQHLRLSFGTVFRHWKKNPLTMENKACLRYQVSSLCGTDNEDKITTGKRKHEDDEPVFEQIENTANPSRCPVKMFECYLSKSPQNLNQRMDVFYLQPECSSSTDSPVWYTSTSLDRNTLENMLVRVLLVKDIYDKDNYELDEDTD [ZMYM2]
melting temperature ([1]; cell cycle stage: G1/S): 49.3 °C
melting temperature ([1]; cell cycle stage: mitosis): 49.7 °C
solubility in G1/S (log2) [2]: -0.229
solubility change mitosis (log2) [3]: 0.00298

MADEATRRVVSEIPVLKTNAGPRDRELWVQRLKEEYQSLIRYVENNKNADNDWFRLESNKEGTRWFGKCWYIHDLLKYEFDIEFDIPITYPTTAPEIAVPELDGKTAKMYRGGKICLTDHFKPLWARNVPKFGLAHLMALGLGPWLAVEIPDLIQKGVIQHKEKCNQ [UFC1]
melting temperature ([1]; cell cycle stage: G1/S): 53.3 °C
melting temperature ([1]; cell cycle stage: mitosis): 52.9 °C
solubility in G1/S (log2) [2]: 0.134
solubility change mitosis (log2) [3]: 0.23

MADDFGFFSSSESGAPEAAEEDPAAAFLAQQESEIAGIENDEGFGAPAGSHAAPAQPGPTSGAGSEDMGTTVNGDVFQEANGPADGYAAIAQADRLTQEPESIRKWREEQRKRLQELDAASKVTEQEWREKAKKDLEEWNQRQSEQVEKNKINNRIADKAFYQQPDADIIGYVASEEAFVKESKEETPGTEWEKVAQLCDFNPKSSKQCKDVSRLRSVLMSLKQTPLSR [CLTB]
melting temperature ([1]; cell cycle stage: G1/S): 56.3 °C
melting temperature ([1]; cell cycle stage: mitosis): 53.3 °C
solubility in G1/S (log2) [2]: 0.159
solubility change mitosis (log2) [3]: 0.651
